Experimental data: patent publication CN109957012A

Assays:
[1] = target: H7N9病毒的血凝素HA (H7N9 influenza virus); assay: ELISA of 293F transfection supernatant (well B, supernatant)
[2] = target: H7N9病毒的血凝素HA (H7N9 influenza virus); assay: ELISA of 293F transfection supernatant (well C, supernatant)
[3] = target: H7N9病毒的血凝素HA (H7N9 influenza virus); assay: ELISA of 293F transfection supernatant (well A, supernatant)

B1: 抗H7N9全人源单克隆抗体8E17 (antibody, V domains shown)
VH: QVQLVESGGGVVQPGRSLRLSCAASGFIFSNYGMHWVRQAPGRGLEWVAVIWSDGTTTYYADSFKGRFTISSDNSKNTVYLQMNSLRADDSAIYYCARGDLDVVQVAAVTKLWDYWGQGTLVTVSS
VL: QSVLTQPPSASGSLGRSVTISCTGTSSDVGGYNYVSWYQQHPGKVPKLLVYEVTKRPSGVPDRFSGSKSGNTASLTVSGLQAEDEADYYCSSYAVSNNFVFGTGTKLTVTV
absorbance at 450 nm (450) [1]: 3.12 OD450
absorbance at 450 nm (450) [2]: 2.96 OD450
absorbance at 450 nm (450) [3]: 3 OD450
